This is an account of results in US10479836B2, “Method for treating pulmonary hypertension with interleukin-5 receptor antibody” (University of Toyama, priority 2015, dated 2019).

For experiment [1], the system named is eosinophils (CD45-positive, Gr1-negative, Siglec-F-positive cells). The experiment in a line: IL-33-induced increase of lung eosinophils, FCM of lung cell suspension. The conditions noted are these: IL-5+/+ mice, 100 μg antibody i.p. five times; for inhibition of IL-33-induced increase in the number of eosinophils: FCM day 21, FIG. 16; for abundance ratio of eosinophils, in absence of IL-33 (PBS): PBS instead of IL-33; for abundance ratio of eosinophils, in absence of IL-33 (PBS) / abundance ratio of eosinophils, in presence of IL-33: lung cells day 21, FCM; for abundance ratio of eosinophils, in presence of IL-33: rIL-33 days 0, 7, 14. The format is in vivo, mouse. Here is the method: (§1) In an experimental system similar to that of Example 3, in order to confirm the inhibitory effects of anti-IL-5R antibodies and anti-IL-5 neutralizing antibodies on vascular wall thickening, 100 μg of the H7 (CS) hIgG1 (DF) (H7-2) antibody, the H7 (CS) hIgG1 (N297A) (H7-4) antibody, an anti-IL-5 antibody (ligand-neutralizing antibody, clone name: TRFK5), the anti-DNP antibody KM8808, the anti-DNP antibody KM6161, or rat IgG (clone name: HRPN) was intraperitoneally administered to each IL-5^+/+ mouse a total of five times (3 consecutive days (three times) from two days before the first rIL-33 administration day (day 0), once on the second rIL-33 administration day (day 7), and once on the third rIL-33 administration day (day 14)) (FIG. 15). Then, on day 21, lung tissues were resected and evaluated by FCM and immunofluorescent staining.
In the FCM, 1×10^6 cells in the lung cell suspension were stained with a PE-Cy7-conjugated anti-CD45 antibody (30-F11), an APC-conjugated anti-Gr1 antibody (RB6-8C5), and a PE-conjugated anti-Siglec-F antibody (E50-2440) (all manufactured by BD Biosciences). CD45-positive, Gr1-negative, and Siglec-F-positive cells were regarded as eosinophils, and the influence of antibody administration was observed.

Experiment [2] concerns Y16 cells. The experiment in a line: IL-5 signal inhibition: rIL-5-dependent Y16 growth inhibition (WST-1). The experiment is classed as cell-based, mouse. The conditions noted are these: rIL-5 5 units/mL, 24 hours; for inhibition of Y16 cell growth (IL-5 signal-inhibiting function): antibody 0.01-10 μg/mL, FIG. 14. The protocol: Whether or not the various recombinant chimeric antibodies prepared in Example 8 would have the function of inhibiting IL-5 signals was studied by using Y16 growth inhibition as an index. 2×10^3 Y16 cells were cultured for 24 hours in the presence or absence of rIL-5 (5 units/mL) after addition of the Cys substitution-containing core fucose-unlinked H7 recombinant chimeric antibody H7 (CS) hIgG1 (DF) (H7-2), the N-linked sugar chain-deficient H7 recombinant chimeric antibody H7 (CS) hIgG1 (N297A) (H7-4), and the anti-DNP antibodies KM8808 and KM6161 at a concentration of 0.01, 0.1, 1, or 10 μg/mL. 24 hours later, these antibodies were evaluated for their ability to inhibit growth using Premix WST-1 Cell Proliferation Assay System (manufactured by Takara Bio Inc.). The culture time after addition of the reagent of the cell growth assay kit was set to 1 hour.
(Formazan colour is commonly taken as a measure of viable cells.)

The subject of experiment [3] is IL-33-induced vascular wall thickening (SMA-positive cells). The experiment in a line: IL-33-induced vascular wall thickening, immunofluorescent staining of lung tissue. The experiment is classed as in vivo, mouse. The conditions noted are these: IL-5+/+ mice, 100 μg antibody i.p. five times; lung tissue day 21. Here is the method: as §1
In the immunofluorescent staining, the tissues were sliced into 30 μm, and slides were prepared and then stained with an Alexa 488-conjugated anti-SMA antibody (1A4) (manufactured by Abcam plc) and an Alexa 647-conjugated anti-Siglec-F antibody (E50-2440). The nuclei of the cells were stained with Hoechst 33342 (manufactured by Life Technologies Corp.). Here, the degree of the growth of SMA-positive cells (primary media-constituting cells) was observed.

In experiment [4] the test system is Y16 cells. Nature of the experiment: ADCC activity against Y16 cells with human PBMC effector cells (LDH release). The conditions noted are these: 4 hrs, 0.0001-1000 ng/mL (control antibodies 1000 ng/mL), FIG. 13. The format is cell-based, mouse. Here is the method: The H7 recombinant chimeric antibodies prepared in Example 8 were evaluated for their ADCC activity against Y16 cells using frozen human peripheral blood mononuclear cells (PBMCs) (manufactured by AllCells) as effector cells. The frozen human PBMCs were shake-cultured (37° C., 5% CO2, overnight) in RPMI1640 medium containing 5% FBS. The Y16 cells (target cells) and the human PBMCs (effector cells) were washed with ADCC assay medium (RPIM1640 containing 5% dialyzed FBS) and adjusted to cell densities of 2×10^5 cells/mL and 3×10^6 cells/mL, respectively. The cells were washed twice with a medium and then suspended into cell densities of 4×10^5 cells/mL. Each chimeric antibody adjusted to a final concentration of 0.0001, 0.001, 0.01, 0.1, 1, 10, 100, or 1000 ng/mL, the target cells (2×10^4 cells/well), and the effector cells (5×10^5 cells/well) were added in this order at 50 μL/well to a 96-well U-bottom plate. The control antibodies used were the rtDNP-1 hIgG1 (DF) antibody (KM8808) and the rtDNP-1 hIgG1 (N297A) antibody (KM6161) of Example 10 adjusted to a final concentration of 1000 ng/mL. The plate was centrifuged (500 rpm, 5 min) and then left standing in an incubator (37° C., 5% CO2, 4 hrs). The plate was centrifuged (1500 rpm, 5 min) to recover a supernatant at 50 μL/well into a 96-well Flat-bottom plate (manufactured by Sumitomo Bakelite Co., Ltd.). Lactate dehydrogenase (LDH) activity in the supernatant was detected using CytoTox 96 Non-Radioactive Cytotoxicity Assay (manufactured by Promega Corp.). Absorbance at 490 nm was measured using a plate reader SPECTRA MAX 340 PC384 (manufactured by Molecular Devices, LLC). The ADCC activity (%) was calculated according to the following equation using background-corrected measurement values. Cytotoxicity=[[Absorbance of the sample]−[Absorbance derived from spontaneous release from the target cells and the effector cells]]/[[Absorbance derived from total release from the target cells]−[Absorbance derived from spontaneous release from the target cells]]
(LDH in the medium is a marker of cell lysis.)

B1: H7-4: N-linked sugar chain-deficient H7 chimeric antibody, human IgG1 (N297A), with Cys at VL position 87 replaced with Ser (antibody, V domains shown)
VH: EVQLQQSGAELGKPGTSVKLSCKVSGYNIKNTYIHWVNQRPGKGLEWIGRIDPANGNPIYAEKFKNKATLTADTSSNTAYMQLSQLKSDDTAIYFCAMHRGHSMGPGPYVMDAWGQGASVTVSS
VL: DIQMTQSPASLSASLGETVTIECRTSEDIYNGLAWYQQKPGKSPQLLIYNANSLHTGVPSRFSGSGSGTQYSLKINSLQSEDVASYSCQQYSNYPFTFGSGTKLEIK
Regarding B1, in experiment [1], the “inhibition of IL-33-induced increase in the number of eosinophils” value (from here on “inhibition of IL-33-induced increase”) is recorded as “at a degree poorer than that of H7-2”; the “abundance ratio of eosinophils, in absence of IL-33 (PBS)” value (shortened to “abundance ratio of eosinophils … (PBS)”) came out at 0.17%; the “abundance ratio of eosinophils, in presence of IL-33” value was 29.1%. In addition, in the experiment with Y16 cells [2], the “Y16 growth inhibiting ability, H7-2 and H7-4 compared” value is recorded as “equivalent inhibiting ability”; the “inhibition of Y16 cell growth (IL-5 signal-inhibiting function)” value (from here on “inhibition of Y16 cell growth”) is “inhibited the growth of the Y16 cells in an antibody concentration-dependent manner”. In addition, the “inhibition of IL-33-induced vascular wall thickening (immunofluorescent staining)” value (from here on “inhibition … (immunofluorescent staining)”) in experiment [3] is given as “at a degree poorer than that of H7-2”. For the same molecule, the “ADCC activity against Y16 cells” value in the experiment on Y16 cells [4] is recorded as “none”.

B2: KM8808: core fucose-deficient anti-dinitrophenol (DNP) rat/human chimeric antibody, isotype control (antibody, V domains shown)
VH: EVQLQESGPGLVKPSQSLSLTCSVTGYSITSGYWNWIRKFPGNKMEWIGYISYSGSTYYNPSLKSRISITRDTSKNQFFLQLNSVTTEDTATYYCARWGVRHYFDYWGQGVMATVSS
VL: DVVMTQTPVSLPVSLGGQASISCRSSQSLANSYGNTYLSWYLQKPGQSPQLLIYRVSNTFSGVPDRFSGSGSGTDFTLKISRVEPEDLGDYYCLQGTHQPYTFGAGTKLELK
On to B2, for which, in experiment [1], the “inhibition of IL-33-induced increase” value is recorded as “not inhibited”; the “abundance ratio of eosinophils … (PBS)” value came to 1.19%; the “abundance ratio of eosinophils, in presence of IL-33” value came to 48.3%. Further, the “inhibition of Y16 cell growth” value with Y16 cells [2] is “not observed”. Moreover, the “inhibition … (immunofluorescent staining)” value in experiment [3] is given as “not observed”. Besides, in the experiment on Y16 cells [4], the “ADCC activity against Y16 cells” value is given as “none”.

B3: KM6161: N-linked sugar chain-deficient anti-DNP rat/human chimeric antibody containing N297A substitution, isotype control (antibody, V domains shown)
VH: B2 VH
VL: B2 VL
For B3, in experiment [1], the “inhibition of IL-33-induced increase” value is on record as “not inhibited”; the “abundance ratio of eosinophils … (PBS)” value came to 0.92%; the “abundance ratio of eosinophils, in presence of IL-33” value is 52.4%. The “inhibition of Y16 cell growth” value in the experiment on Y16 cells [2] is reported as “not observed”. For the same molecule, the “inhibition … (immunofluorescent staining)” value in experiment [3] is on record as “not observed”. Further, the “ADCC activity against Y16 cells” value with Y16 cells [4] is given as “none”.
